Assay results published in patent US20170260272A1 (Novartis, published 2017).
Like-named read-outs stand apart in the source and are kept apart here.

Assays:
[1] = biological target: T1, APP-Avi-soluble human LOX-1(61-273) (human, UniProt P78380 61-273); assay: SET, IgG vs soluble human LOX-1
Procedure: (§1) Affinity determination for anti-LOX-1 IgGs using Solution Equilibrium Titration (SET) was basically performed as described in the literature (Friguet et al., 1985 J Immunol Methods 77: 305-319). The assays were performed in a 96-well polypropylene plate (Thermo Scientific, Catalog no. AB-1127) using a constant concentration of LOX-1 antibody mixed with different concentrations of non-biotinylated human or cynomolgus monkey LOX-1 protein and incubated at 22° C. for 14 hours with constant shaking (300 rpm).
(§2) On a pre-blocked MSD plate (Meso Scale Discovery, catalog no. L21SA) biotinylated human or cynomolgus monkey soluble LOX-1 protein was immobilized and washed afterwards. The equilibrium binding reactions were then applied to the MSD plate with immobilized LOX-1 and incubated for 30 min. The unbound material was removed by washing the plate, and the captured antibody was detected by adding Sulfo-tagged goat anti-human IgG (Meso Scale Discovery, catalog no. R3AJ-1). After incubation and washing 1×MSD read buffer T(Meso Scale Discovery, catalog no. R92TC-2) was added and the plate was developed using a Sector Imager 6000 (Meso Scale Discovery). The data were transferred to Excel for analysis and plotted using GraphPad Prism v5. The KD values were determined by fitting the data to the following equation: […]

[2] = biological target: T1, APP-Avi-soluble human LOX-1(61-273); assay: SET, IgG vs soluble human LOX-1; remark: listed apart in the source
Procedure: as §1, §2

[3] = biological target: T2, APP-Avi-soluble cynomolgus monkey LOX-1(61-273) (cynomolgus monkey); assay: SET, IgG vs soluble cynomolgus LOX-1
T2 construct: Non-biotinylated as titrated antigen in SET, biotinylated for capture on the plate; also called cyno sLOX-1; cynomolgus monkey soluble LOX-1
Procedure: as §1, §2

[4] = biological target: T1, APP-Avi-soluble human LOX-1(61-273); assay: competition ELISA: oxLDL binding to plate-bound biotinylated human sLOX-1
Procedure: NeutrAvidin 384 well plates were coated with 2.5 μg/ml biotinylated LOX-1 diluted in PBS. After blocking with 25% Block Ace (AbD Serotec, Cat#BUF029) in PBS, purified Fabs or IgGs diluted in PBS/1% BSA were added. Subsequently OxLDL (copper-sulfate oxidized LDL, Kalen Biomedical #770202) or MDA-LDL (Academy Biomedical, #20P-UMD-L102) ligand diluted in PBS/1% BSA were allowed to bind to coated LOX-1. Secondary antibody (HRP conjugated sheep anti ApoB IgG; The Binding Site) diluted 1:1,000 in PBS/1% BSA was added followed by addition of TMB substrate (Thermo Scientific). After 10 minutes 1M H2SO4 was added and absorbance was determined at 450 nm. During early screenings, Fab fragments were also tested in this oxLDL binding assay using Fab-containing crude E. coli lysates.
The ability of LOX-1 antibodies to inhibit oxLDL binding to LOX-1 protein was determined using the method described in Example 4. In addition to “high binding OxLDL” from Kalen Biomedical (catalog number 770212-7), which is generated by copper sulfate mediated oxidation of LDL, two other forms of modified LDL were tested in this assay: malondialdehyde modified LDL (Academy Bio-Medical Co. catalog number 20P-MD-L105) and hypochlorite modified LDL. Hypochlorite modified LDL was prepared according to the following procedure. Human LDL (Kalen Biomedical catalog number 770200-4) was diluted with PBS to a final concentration of 0.25 mg/mL. Sodium hypochlorite (NaOCI, JT Baker catalog number 9416-01) was then added to 0.1 mM final concentration. The solution was incubated at room temperate for 4 hours, then quenched by adding L-methionine to a final concentration of reaction by adding 5 μl of 100 mM Mehionine per 200 μl total volume.

[5] = biological target: T1, APP-Avi-soluble human LOX-1(61-273); assay: competition ELISA: AGE-BSA binding to plate-bound biotinylated human sLOX-1
Procedure: Purified APP-Avi-soluble human soluble LOX-1(61-273) protein prepared as described in Example 1 was biotinylated as described in Example 5. NeutrAvidin 384 well plates were coated with 5 μg/ml biotinylated LOX-1 diluted in bicarbonate buffer (Thermo Scientific). After blocking with PBS/2% BSA/0.1% Tween20/0.1% TritonX-100, purified Fabs or IgGs diluted in PBS/2% BSA/0.1% Tween20/0.1% TritonX-100 were added. Subsequently AGE-BSA ligand (R&D Systems, #BT4127) diluted in PBS/2% BSA/0.1% Tween20/0.1% TritonX-100 was allowed to bind to coated LOX-1. Streptavidin-HRP (R&D Systems) diluted 1:200 in PBS/2% BSA/0.1% Tween20/0.1% TritonX-100 was added followed by addition of TMB substrate (Thermo Scientific). After 10 minutes 1M H₂SO₄ was added and absorbance was determined at 450 nm. Assay performance was affected by the type of BSA used for blocking and diluent solutions. For optimal assay performance, BSA from Sigma (catalog #A4503) was used.

T2 sequence (chain, as listed by the source limits assumed): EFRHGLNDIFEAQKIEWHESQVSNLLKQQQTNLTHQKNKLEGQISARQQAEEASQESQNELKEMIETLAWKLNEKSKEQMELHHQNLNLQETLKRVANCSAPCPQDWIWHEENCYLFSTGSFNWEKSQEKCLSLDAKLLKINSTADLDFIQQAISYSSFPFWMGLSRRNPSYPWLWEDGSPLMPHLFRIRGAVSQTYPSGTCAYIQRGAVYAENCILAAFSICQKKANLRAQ

Binder | Kd [1] [pM] | Kd [2] [pM] | Kd [3] [pM] | IC50 [4] [pM] | IC50 [5] [pM]
MOR021433 (antibody, human IgG1, kappa, L234A L235A, V domains shown, also called MOR21433) VH: QVQLVQSGAEVKKPGSSVKVSCKASGGTFSDYAISWVRQAPGQGLEWMGGIMPISGAPYYAQKFQGRVTITADESTSTAYMELSSLRSEDTAVYYCARDSSTSYYYYFDYWGQGTLVTVSS VL: DIQMTQSPSSLSASVGDRVTITCRASQDINSWLAWYQQKPGKAPKLLIYQASNLQSGVPSRFSGSGSGTDFTLTISSLQPEDFATYYCQQIDHTPFTFGQGTKVEIKR | 2.5 | 3 | 4 | 2900 | 1400
MOR021435 (antibody, human IgG1, kappa, L234A L235A, V domains shown, also called MOR21435) VH: QVQLVQSGAEVKKPGSSVKVSCKASGGTFSDYAISWVRQAPGQGLEWMGGIVPIVGTANYAQKFQGRVTITADESTSTAYMELSSLRSEDTAVYYCARDSSTSYYYYFDYWGQGTLVTVSS VL: DIQMTQSPSSLSASVGDRVTITCRASQDINSWLAWYQQKPGKAPKLLIYQASNLQSGVPSRFSGSGSGTDFTLTISSLQPEDFATYYCQQMWQFPITFGQGTKVEIKR | 6 | 5 | 5 | 2800 | 1700
MOR021453 (antibody, human IgG1, lambda, L234A L235A, also called MOR21453) heavy: not shown light: DIALTQPASVSGSPGQSITISCTGTSSDVGYINYVNWYQQHPGKAPKLMIYEVSNRPSGVSNRFSGSKSGNTASLTISGLQAEDEADYYCASWDWYDNVVFGGGTKLTVLGQPKAAPSVTLFPPSSEELQANKATLVCLISDFYPGAVTVAWKADSSPVKAGVETTTPSKQSNNKYAASSYLSLTPEQWKSHRSYSCQVTHEGSTVEKTVAPTECS | 4 | 4 | 7 | 2600 | 1600

The remaining lines, values ahead:

Kd [1] [pM] | Kd [2] [pM] | Kd [3] [pM] | IC50 [4] [pM] | IC50 [5] [pM] | Binder
7.5 | 10 | 7 | 3200 | 2200 | MOR021452 (antibody, human IgG1, lambda, L234A L235A, also called MOR21452) heavy: not shown light: DIALTQPASVSGSPGQSITISCTGTSSDVGYINYVNWYQQHPGKAPKLMIYEVSNRPSGVSNRFSGSKSGNTASLTISGLQAEDEADYYCASWDWYDNVVFGGGTKLTVLGQPKAAPSVTLFPPSSEELQANKATLVCLISDFYPGAVTVAWKADSSPVKAGVETTTPSKQSNNKYAASSYLSLTPEQWKSHRSYSCQVTHEGSTVEKTVAPTECS
0.3 | 0.3 | 0.7 | 4000 | 2100 | MOR021460 (antibody, human IgG1, lambda, L234A L235A, V domains shown, also called MOR21460) VH: QVQLLESGGGLVQPGGSLRLSCAASGFTFSDYALHWVRQAPGKGLEWVSVISYQGGFIYYADSVKGRFTISRDNSKNTLYLQMNSLRAEDTAVYYCARSPGLTSYHDSWGQGTLVTVSS VL: DIVLTQPPSVSGAPGQRVTISCSGSSSNIGSNYVSWYQQLPGTAPKLLIHSNSHRPSGVPDRFSGSKSGTSASLAITGLQAEDEADYYCQSWDYESERVVFGGGTKLTVLG
0.65 | 0.6 | 0.5 | 4800 | 2400 | MOR021468 (antibody, human IgG1, lambda, L234A L235A, V domains shown, also called MOR21468) VH: QVQLLESGGGLVQPGGSLRLSCAASGFTFSDYALHWVRQAPGKGLEWVSVISYAGGFKFYADSVKGRFTISRDNSKNTLYLQMNSLRAEDTAVYYCARSPGLTSYHDSWGQGTLVTVSS VL: DIVLTQPPSVSGAPGQRVTISCSGSSSNIGSNYVSWYQQLPGTAPKLLIHSNSHRPSGVPDRFSGSKSGTSASLAITGLQAEDEADYYCQSWDYESERVVFGGGTKLTVLG
